Results reported in patent US20150260731A1.

Legend:
Aβ1-20 = test: solution-based binding assay, free antibody by ELISA, GRAFIT fit
[1] = biological target: amyloid β-derived diffusible ligands (ADDLs), oligomers of Aβ1-42; test: BIACORE (SPR)
Aβ1-40 monomer [2] = test: BIACORE (SPR)
[3] = biological target: amyloid β-derived diffusible ligands (ADDLs), oligomers of Aβ1-42; test: competitive ELISA (ratio of the two EC50)
[4] = biological target: amyloid β-derived diffusible ligands (ADDLs), oligomers of Aβ1-42; test: one-sided ELISA, plate coated with Aβ oligomers 50 pmol/well (FIG. 5A)
Aβ1-40 monomer [5] = test: ELISA on coated antigen; antibody at 0 timepoint
[6] = biological target: amyloid β-derived diffusible ligands (ADDLs), oligomers of Aβ1-42; test: sandwich ELISA on ERENNA, 19.3 on beads as capture, labelled 7305 as detection; ADDLs 0.56 pM in standards diluent
[7] = biological target: amyloid β-derived diffusible ligands (ADDLs), oligomers of Aβ1-42; test: sandwich ELISA on ERENNA, 19.3 on beads as capture, labelled 7305 as detection; ADDLs 5.00 pM in standards diluent
[8] = biological target: amyloid β-derived diffusible ligands (ADDLs), oligomers of Aβ1-42; test: sandwich ELISA on ERENNA, 19.3 on beads as capture, labelled 7305 as detection; ADDLs 0.19 pM in standards diluent
Aβ1-40 monomer [9] = test: sandwich ELISA on ERENNA, 19.3 capture, 7305 detection
Aβ1-40 monomer [10] = test: ELISA on coated antigen; antibody kept at 4° for 1 month
Aβ1-40 monomer [11] = test: one-sided ELISA, plate coated with Aβ1-40 100 pmol/well (FIG. 5A)
[12] = biological target: amyloid β-derived diffusible ligands (ADDLs), oligomers of Aβ1-42; test: ELISA, IgG2
[13] = biological target: amyloid β-derived diffusible ligands (ADDLs), oligomers of Aβ1-42; test: sandwich ELISA on ERENNA, 19.3 on beads as capture, labelled 7305 as detection; ADDLs 1.67 pM in standards diluent
Aβ1-40 monomer [14] = test: ELISA on coated antigen; antibody kept at 40° for 1 month
[15] = biological target: amyloid β-derived diffusible ligands (ADDLs), oligomers of Aβ1-42; test: KINEXA, equilibrium in solution
Aβ1-40 monomer [16] = test: KINEXA, equilibrium in solution
Aβ1-40 monomer [17] = test: ELISA on coated antigen; antibody kept at 25° for 1 month
Aβ1-40 monomer [18] = test: sandwich ELISA on ERENNA, 19.3 capture, 82E1 detection

Sequence of Aβ1-20 (peptide, as listed by the source): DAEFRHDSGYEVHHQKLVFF

| Substance | Kd (Aβ1-20) [nM] | Kd [1] [nM] | Kd (Aβ1-40 monomer [2]) [nM] | affinity for Aβ1-42 oligomers compared to Aβ1-40 monomers [3] | EC50 [4] [nM] | EC50 (Aβ1-40 monomer [5]) [nM] | DE Mean (detected events mean) (detected events) [6] | DE Mean (detected events mean) (detected events) [7] | DE Mean (detected events mean) (detected events) [8] | Aβ40 monomer Cross Reactivity (Aβ1-40 monomer [9]) [%] | EC50 (Aβ1-40 monomer [10]) [nM] | EC50 (Aβ1-40 monomer [11]) [nM] | EC50 [12] [nM] | DE Mean (detected events mean) (detected events) [13] | EC50 (Aβ1-40 monomer [14]) [nM] | Kd [15] [nM] | Kd (Aβ1-40 monomer [16]) [nM] | EC50 (Aβ1-40 monomer [17]) [nM] | Aβ40 monomer Cross Reactivity (Aβ1-40 monomer [18]) [%] |
| --- | --- | --- | --- | --- | --- | --- | --- | --- | --- | --- | --- | --- | --- | --- | --- | --- | --- | --- | --- |
| WO-2 (antibody) | 19.3 | – | – | – | – | – | – | – | – | – | – | – | – | – | – | – | – | – | – |
| anti-ADDL antibody 19.3 | – | 4.8 | 150 | 630 | 1.6 | 10.1 | 691 | 5580 | 324 | 0.02 | 16.3 | 4.3 | 0.8 | 1940 | 88.8 | 2.7 | 16.7 | 22.1 | 0.04 |
